Laboratory results from article PMC7327521 (Journal of Molecular Biology, 2020).
Substitutions are numbered along the chain they refer to. Square brackets hold non-standard residues; d marks the D form. Ends that are not written are not given here. pY = N[C@@H](Cc1ccc(OP(=O)(O)O)cc1)C(=O)O

How the values were obtained:
Experiment in all cases: fluorescence polarisation
[1] = target: T1, Spt6 from S. cerevisiae lacking the first unstructured 297 residues (Spt6ΔN) (S. cerevisiae, UniProt P23615 298-1451)
T1 sequence (looked up): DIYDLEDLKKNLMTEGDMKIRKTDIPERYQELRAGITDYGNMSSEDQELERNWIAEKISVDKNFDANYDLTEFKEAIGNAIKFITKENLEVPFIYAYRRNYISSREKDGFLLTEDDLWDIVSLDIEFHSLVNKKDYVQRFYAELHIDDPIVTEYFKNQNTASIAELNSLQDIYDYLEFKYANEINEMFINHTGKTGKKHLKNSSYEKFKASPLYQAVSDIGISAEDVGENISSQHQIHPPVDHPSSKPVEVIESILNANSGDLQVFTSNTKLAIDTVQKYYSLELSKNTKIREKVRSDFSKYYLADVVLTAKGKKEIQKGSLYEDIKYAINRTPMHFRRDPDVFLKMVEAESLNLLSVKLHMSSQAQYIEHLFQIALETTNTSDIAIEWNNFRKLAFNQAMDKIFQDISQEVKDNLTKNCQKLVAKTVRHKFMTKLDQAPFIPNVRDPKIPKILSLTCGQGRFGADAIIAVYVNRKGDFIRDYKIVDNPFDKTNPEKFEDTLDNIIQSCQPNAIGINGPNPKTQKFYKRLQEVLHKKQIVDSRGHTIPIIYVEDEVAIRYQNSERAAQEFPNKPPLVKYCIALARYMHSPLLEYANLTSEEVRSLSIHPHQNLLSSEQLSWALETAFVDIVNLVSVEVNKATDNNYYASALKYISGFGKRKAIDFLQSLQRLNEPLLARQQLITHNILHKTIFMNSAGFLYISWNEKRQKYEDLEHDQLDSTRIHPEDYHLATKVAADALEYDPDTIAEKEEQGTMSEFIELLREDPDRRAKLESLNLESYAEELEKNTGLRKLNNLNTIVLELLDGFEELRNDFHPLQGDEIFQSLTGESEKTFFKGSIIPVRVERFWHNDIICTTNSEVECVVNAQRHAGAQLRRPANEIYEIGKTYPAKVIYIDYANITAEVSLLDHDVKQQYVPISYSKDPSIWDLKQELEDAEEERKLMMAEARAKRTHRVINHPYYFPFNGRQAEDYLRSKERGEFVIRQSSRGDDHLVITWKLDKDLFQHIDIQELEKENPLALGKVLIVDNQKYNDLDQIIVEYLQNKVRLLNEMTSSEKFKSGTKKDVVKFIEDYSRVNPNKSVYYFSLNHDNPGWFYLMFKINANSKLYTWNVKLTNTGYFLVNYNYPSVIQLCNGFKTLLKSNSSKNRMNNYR

[2] = target: T2, tandem SH2 domain of C. glabrata Spt6 (Spt6-tSH2) (C. glabrata, UniProt Q6FLB1 1250-1444)
T2 sequence (looked up): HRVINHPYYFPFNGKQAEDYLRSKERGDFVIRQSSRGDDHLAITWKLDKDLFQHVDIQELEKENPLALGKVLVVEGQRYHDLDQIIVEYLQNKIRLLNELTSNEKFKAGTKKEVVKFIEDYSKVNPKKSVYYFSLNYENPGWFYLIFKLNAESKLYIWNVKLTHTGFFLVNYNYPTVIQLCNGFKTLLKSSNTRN

[3] = target: T3, N-terminal SH2 domain of C. glabrata Spt6 (Spt6-N-SH2) (C. glabrata, UniProt Q6FLB1 1250-1354)
T3 sequence (looked up): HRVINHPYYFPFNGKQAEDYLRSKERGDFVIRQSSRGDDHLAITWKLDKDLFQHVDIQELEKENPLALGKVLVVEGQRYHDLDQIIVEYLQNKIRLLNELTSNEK

Spt6-tSH2 S1284A = target: T4, Spt6-tSH2 S1284A (C. glabrata, UniProt Q6FLB1 1250-1444, S1284A)
T4 sequence (looked up): T2 sequence (looked up) with S35A

[4] = target: T5, Spt6-tSH2 R1281A/S1283A/R1285A (C. glabrata, UniProt Q6FLB1 1250-1444, R1281A | S1283A | R1285A)
T5 sequence (looked up): T2 sequence (looked up) with R32A, S34A, R36A

Spt6-tSH2 R1285A = target: T6, Spt6-tSH2 R1285A (C. glabrata, UniProt Q6FLB1 1250-1444, R1285A)
T6 sequence (looked up): T2 sequence (looked up) with R36A

{5,6‑FAM}-PS[pY]SPTSPS[pY]SPTSPS [(pY1-CTD)2, FAM-labelled tyrosine-phosphorylated CTD diheptad] gave a Kd [1] of 4 ± 0.5 µM, a Kd [2] of 5.1 µM and a Kd [3] of 313 µM. It also gave a Kd (Spt6-tSH2 S1284A) of 8.2 µM, a Kd [4] of 16.5 µM and a Kd (Spt6-tSH2 R1285A) of 12 µM.
